In experiment [1] the target is T1, human TGFbR1 ECD-133-myc(His)6 (human).
T1 chain: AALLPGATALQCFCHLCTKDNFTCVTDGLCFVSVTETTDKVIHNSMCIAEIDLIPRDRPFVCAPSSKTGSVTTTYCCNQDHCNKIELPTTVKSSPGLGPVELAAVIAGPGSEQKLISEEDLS
Description: BLI.

The target in experiment [2] is T2, human TGFbR1 ECD-133-huFc (human).
T2 chain: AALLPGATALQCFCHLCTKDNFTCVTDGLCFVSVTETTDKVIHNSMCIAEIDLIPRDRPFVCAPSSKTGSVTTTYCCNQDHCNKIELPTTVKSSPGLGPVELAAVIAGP
Nature of the experiment: ELISA. (An ELISA detects its analyte on a solid surface through an enzyme-linked reagent.)

Experiment [3] has as its target T1, human TGFbR1 ECD-133-myc(His)6. Description: ELISA.
Experiment [4] has the same target. Nature of the experiment: BLI.

12 molecules from patent US20260374880 (published 2026) can be followed below.

Like-named read-outs stand apart in the source and are kept apart here.

B1: YU772-D10 (antibody, V domains shown)
VH: EVQLLESGGGLVQPGGSLRLSCAASGFTFSSYPMSWVRQAPGKGLEWVSAISGYGGSTYYADSVKGRFTISRDNSKNTLYLQMNSLRAEDTAVYYCARVVGYVYDGSYGGGMDYWGQGTLVTVSS
VL: DIQMTQSPSSLSASVGDRVTITCRASQSISSYLNWYQQKPGKAPKLLIYAASSLQSGVPSRFSGSGSGTDFTLTISSLQPEDFATYYCQQGYGPLTFGQGTKLEIK
What is called Kd is the free concentration of one partner at which half of the binding sites on the other are occupied at equilibrium, for simple one-to-one binding. Read a high Kd as weaker binding. A word on the EC50: it is the concentration giving half of the maximal effect. Low readings indicate higher potency in that assay, high ones lower potency in that assay. For B1, the Kd in experiment [1] worked out at 7.8 nM. In experiment [2], this molecule gave an EC50 of 0.0225 µg/mL.

B2: YU772-F11 (antibody, V domains shown)
VH: EVQLLESGGGLVQPGGSLRLSCAASGFTFSTYPMSWVRQAPGKGLEWVSAISGSGGSTYYADSVKGRFTISRDNSKNTLYLQMNSLRAEDTAVYYCARVVGYVYRGSYGGGMDYWGQGTLVTVSS
VL: DIQMTQSPSSLSASVGDRVTITCRASQSISSYLNWYQQKPGKAPKLLIYAASSLQSGVPSRFSGSGSGTDFTLTISSLQPEDFATYYCQQGYGPLTFGQGTKLEIK
In turn, B2 showed a Kd in experiment [1] of 7.6 nM. Also, the EC50 in experiment [2] worked out at 0.0249 µg/mL.

B3: YU772-A11 (antibody, V domains shown)
VH: EVQLLESGGGLVQPGGSLRLSCAASGFTFSSYAMSWVRQAPGKGLEWVSAISGSGGYTYYADSVKGRFTISRDNSKNTLYLQMNSLRAEDTAVYYCARVVGYVYDGAYGGGMDYWGQGTLVTVSS
VL: DIQMTQSPSSLSASVGDRVTITCRASQSISSYLNWYQQKPGKAPKLLIYAASSLQSGVPSRFSGSGSGTDFTLTISSLQPEDFATYYCQQGYGPLTFGQGTKLEIK
On to B3, for which the dissociation constant Kd in experiment [1] is 7.9 nM. The EC50 in experiment [2] was 0.0314 µg/mL.

B4: Antibody 19 (parental) (antibody, V domains shown)
VH: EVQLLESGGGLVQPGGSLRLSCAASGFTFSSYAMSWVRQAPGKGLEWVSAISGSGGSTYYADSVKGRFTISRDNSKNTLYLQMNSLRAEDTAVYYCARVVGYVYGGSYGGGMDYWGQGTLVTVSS
VL: DIQMTQSPSSLSASVGDRVTITCRASQSISSYLNWYQQKPGKAPKLLIYAASSLQSGVPSRFSGSGSGTDFTLTISSLQPEDFATYYCQQGYGPLTFGQGTKLEIK
With B4, the Kd in experiment [1] came to 22 nM. In experiment [2], this molecule had an EC50 of 0.139 µg/mL.

B5: YU772-H05 (antibody, V domains shown)
VH: EVQLLESGGGLVQPGGSLRLSCAASGFTFSSYAMSWVRQAPGKGLEWVSAISGSGGTTYYADSVKGRFTISRDNSKNTLYLQMNSLRAEDTAVYYCARVVGYVFGGYYGGGMDYWGQGTLVTVSS
VL: DIQMTQSPSSLSASVGDRVTITCRASQSISSYLNWYQQKPGKAPKLLIYAASSLQSGVPSRFSGSGSGTDFTLTISSLQPEDFATYYCQQGYGPLTFGQGTKLEIK
The molecule B5 yielded a Kd in experiment [1] of 12 nM. This molecule registered an EC50 in experiment [2] of 0.03 µg/mL.

B6: YU771-A01 (antibody, V domains shown)
VH: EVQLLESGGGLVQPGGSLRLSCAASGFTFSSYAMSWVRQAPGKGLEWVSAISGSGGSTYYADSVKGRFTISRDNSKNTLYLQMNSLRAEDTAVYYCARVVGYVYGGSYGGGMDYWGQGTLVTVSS
VL: DIQMTQSPSSLSASVGDRVTITCRASQSISSYLNWYQQKPGKAPKLLIYGASFLQYGVPSRFSGSGSGTDFTLTISSLQPEDFATYYCQQGYGPLTFGQGTKLEIK
B6 yielded a Kd in experiment [1] of 11 nM. For the same molecule, the EC50 in experiment [2] is 0.022 µg/mL.

B7: YU771-B12 (antibody, V domains shown)
VH: EVQLLESGGGLVQPGGSLRLSCAASGFTFSSYPMSWVRQAPGKGLEWVSAISGYGGSTYYADSVKGRFTISRDNSKNTLYLQMNSLRAEDTAVYYCARVVGYVYGGSYGGGMDYWGQGTLVTVSS
VL: DIQMTQSPSSLSASVGDRVTITCRASQSISSYLNWYQQKPGKAPKLLIYAASSLQSGVPSRFSGSGSGTDFTLTISSLQPEDFATYYCQQGYGPLTFGQGTKLEIK
Consider B7, for which the Kd in experiment [1] was determined as 16 nM. In addition, the midpoint of the response in experiment [2], the EC50, lay at 0.0244 µg/mL.

B8: YU772-D10_VH-YU772-C01_VL (antibody, V domains shown)
VH: EVQLLESGGGLVQPGGSLRLSCAASGFTFSSYPMSWVRQAPGKGLEWVSAISGYGGSTYYADSVKGRFTISRDNSKNTLYLQMNSLRAEDTAVYYCARVVGYVYDGSYGGGMDYWGQGTLVTVSS
VL: DIQMTQSPSSLSASVGDRVTITCRASQSIWSYLNWYQQKPGKAPKLLIYAASSLQSGVPSRFSGSGSGTDFTLTISSLQPEDFATYYCQQGYGPLTFGQGTKLEIK
As for B8, binding in experiment [1] was characterised by a dissociation constant (Kd) of 7.3 nM. The same molecule displayed an EC50 in experiment [2] of 0.0303 µg/mL.

B9: YU772-G12 (antibody, V domains shown)
VH: EVQLLESGGGLVQPGGSLRLSCAASGFPFSTYAMSWVRQAPGKGLEWVSAISGSGGYTYYADSVKGRFTISRDNSKNTLYLQMNSLRAEDTAVYYCARVVGYVYGGSYGGGMDYWGQGTLVTVSS
VL: DIQMTQSPSSLSASVGDRVTITCRASQSISSYLNWYQQKPGKAPKLLIYAASSLQSGVPSRFSGSGSGTDFTLTISSLQPEDFATYYCQQGYGPLTFGQGTKLEIK
B9: the Kd in experiment [1] is 8.7 nM. The molecule further gave an EC50 in experiment [2] of 0.0213 µg/mL.

B10: YU772-G04_VH-YU771-A09-VL (antibody, V domains shown)
VH: EVQLLESGGGLVQPGGSLRLSCAASGFPFSSYAMSWVRQAPGKGLEWVSAISGSGGTTYYADSVKGRFTISRDNSKNTLYLQMNSLRAEDTAVYYCARVAGYVHRGFYGGGMDYWGQGTLVTVSS
VL: DIQMTQSPSSLSASVGDRVTITCRASQSIYSHLNWYQQKPGKAPKLLIYAASTLQSGVPSRFSGSGSGTDFTLTISSLQPEDFATYYCQQAYGPLTFGQGTKLEIK
Molecule B10 gave a Kd in experiment [1] of 8.8 nM. This molecule also yielded an EC50 in experiment [2] of 0.0257 µg/mL.

B11: mAb #19 human IgG1-LALA (antibody, V domains shown)
VH: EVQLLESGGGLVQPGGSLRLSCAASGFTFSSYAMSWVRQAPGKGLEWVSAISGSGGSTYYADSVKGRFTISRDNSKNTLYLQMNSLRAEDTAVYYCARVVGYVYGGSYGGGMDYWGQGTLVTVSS
VL: DIQMTQSPSSLSASVGDRVTITCRASQSISSYLNWYQQKPGKAPKLLIYAASSLQSGVPSRFSGSGSGTDFTLTISSLQPEDFATYYCQQGYGPLTFGQGTKLEIK
A word on the IC50: it is the concentration needed to halve the response being measured. Take B11: in experiment [3], it took 0.139 nM to reach half-maximal inhibition (IC50). In experiment [4], this molecule displayed a Kd of 5.9 nM.

B12: YU771-E01 (antibody, V domains shown)
VH: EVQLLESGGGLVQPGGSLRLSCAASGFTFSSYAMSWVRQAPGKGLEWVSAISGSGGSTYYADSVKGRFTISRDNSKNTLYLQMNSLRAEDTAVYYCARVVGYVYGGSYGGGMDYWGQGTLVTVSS
VL: DIQMTQSPSSLSASVGDRVTITCRASESISSYLNWYQQKPGKAPKLLIYGASFLQWGVPSRFSGSGSGTDFTLTISSLQPEDFATYYCQQGYGPLTFGQGTKLEIK
In turn, B12 came in with a Kd in experiment [1] of 8.9 nM. In addition, the midpoint of the response in experiment [2], the EC50, lay at 0.0231 µg/mL.
